Measurements published in the DeepSol protein solubility set.

experiment: soluble on expression in E. coli; label from the status in PepcDB or PDB records

Sequence	soluble on expression in E. coli
MGSDKIHHHHHHMDRSYRTPKAWLTKTSGFLQGYDYSLNPYVGCTFACSYCYVRKMPVALFHKGEWGDWVDIKQGVKETFSNELVRAKKRGRVHLFMSSSTDPYQPVEVEEKVTRSLLEVMADNPPDFLFVQTRSPLVTRDVDILQQLGKRVRVSLTIETDLESVRKAFAPKAPPIQGRKRALHALYQAGIPTQLTVAPILPSSDRFAESYVSIADQVCIDTFELGDGANGKRSRALRMPERLTELGYESWYEEAALEKVHQQFCAHFDESRVKLSQEGFLP	not soluble
MTYDPKTAVKQDSFSGKEPFNILLLGTDTGAFGRKEVRGNSDTMILVTVNPAKKKLSLMSIPRDTMARMIGTDNFSVHKINAAYNIGGAKMAMRTTSKVLNVPIKYYISMNMGGMRKIVDGVGGVTVTPPLTFTYDGYTFTKGKTVHLNGSQALAYSRMRYDDPKGDYGRQLRQREVIMSVLEHALSFNTLKNLDSILGSVSTSLRTNLTFDSMVKISKNYRKCTNNMSSDYLHGVGAMIGDASYQVMSDRELQRTSNIVRNDLGLDSMDIDNNETYQNSMNSQFDWNSGDSNQVYYIYDPYTDELWNGDRAYLEHHHHHH	soluble
MSLVISIRRSRHEEGEELVAIWCRSVDATHDFLSAEYRTELEDLVRSFLPEAPLWVAVNERDQPVGFMLLSGQHMDALFIDPDVRGCGVGRVLVEHALSMAPELTTNVNEQNEQAVGFYKKVGFKVTGRSEVDDLGKPYPLLNLAYVGAEGGSHHHHHH	soluble
MGSDKIHHHHHHHLKTQAISFVIHFAHRPVKRYDSPLSFLCSRRVQKIKIMLRATSLFITLGLSHSAWALVPPDYQEPPSDFSAEIEAGLQINTGNTESSSFNGRTKLVYDTDKFRQEGVFKAYFASDSEKTTSEKYDVQLQSSYKIYSGYIFARGDFTEDRFGSYTRISTVSTGYGFDAISGDSTKLSLEVGPGYRYNLPQVSESVPDPEADREIILRTAAKFEQKIHEYTSFNADLTAETGEANNTVTLDMSYKNTLFQDWAFKIGMNIKYTEVVPEGSKQTDTVTTFNLLYTFK	not soluble
MKFKKYILTGTLALLLSSTGIATIEGNKADASSLDKYLTESQFHDKRIAEELRTLLNKSNVYALAAGSLNPYYKRTIMMNEYRAKAALKKNDFVSMADAKVALEKIYKEIDEIINR	not soluble
MGSDKIHHHHHHMNSKYNFQYFQGSSLSDLFAQDITDGSYGFILNYPATASWAAYPNRKKYFIQDGSSEASKTSFDKICQKEPWKNLAVLGDRIPGIVIIPPPKPLLEYWQEHFGFKHSNIEMMDCSTYLDDLSHSDRFDKLITLFPFDCLKPEKHAVTSDTHYRLLSKVTLEEIGVQCPKYKSYNLHQVNIVDIQLPQFPYLIKTSHGLSGEGTYIIKNPSDLNYCLEEINKYLDIKLLDTIIVSEFIKNEVQNYCVQFYVNKAGEITLIGTTGQLVTPEGNYLGGVIDYGKTDMSKFFEMIANVGDYAHKQGYFGVIGFDVLENQDGQFYAIDANFRVNGSTPLCLQRHTLLRLGKEVAKYSSSYRMEGTLESILITLKPELDRKDLIILSALEKAKYGKIYTELYAIVTGETIAQMQYIEQQLQTKGLQLLS	not soluble
VNKSELIEAIAQEADISKAAAQKALDATTNAVTTALKQGDTVTLVGFGTFYVGERAERQGRNPKTGEPLTIAAAKTPKFRAGKALKDAL	soluble
MGSDKIHHHHHHMIITTALANEIVARAMAIIHHNVNVIDHHGQIIASGERHRIGEQHEVAREVIRTGKRICINNAAEAARFHNVHPGINHPIIYDDRVVMVVGISGDPAAISRYAELAVLTAELLVRQAIEMRETNWRQRLRDTLFCQYLEQGATPAGQEALHRLLELGFDFDTPRVPIVVTVQVEQHQLSDILSTLLREFSQLSGVSDVILLGSHEILILNALSEAQETLLRGIEFVLSNQISHYHIGIGVQADSAPDIREAIRFARSVIEVGSKVQPQRQIYYFREMAMLCLFRVLEDSYMVNFFINNVRQLLEHDSGEVLLDTLSSFIANNAEPGKTSLLLGIHRNTLTYRLQQIKKHIQLDPMVFTDLTQLAVSVHCYRRLNPRQSEWIDSLS	not soluble
